Assay [1] concerns the target T1, human MSR1 extracellular domain expressed with a N-terminal nonahistidine tag (His9-hMSR1); R&D Systems, Cat … (human, UniProt P21757 77-451).
T1 construct: extracellular domain; Bought reagent; also called His-hMSR1; 9xHis-hMSR1
T1 sequence: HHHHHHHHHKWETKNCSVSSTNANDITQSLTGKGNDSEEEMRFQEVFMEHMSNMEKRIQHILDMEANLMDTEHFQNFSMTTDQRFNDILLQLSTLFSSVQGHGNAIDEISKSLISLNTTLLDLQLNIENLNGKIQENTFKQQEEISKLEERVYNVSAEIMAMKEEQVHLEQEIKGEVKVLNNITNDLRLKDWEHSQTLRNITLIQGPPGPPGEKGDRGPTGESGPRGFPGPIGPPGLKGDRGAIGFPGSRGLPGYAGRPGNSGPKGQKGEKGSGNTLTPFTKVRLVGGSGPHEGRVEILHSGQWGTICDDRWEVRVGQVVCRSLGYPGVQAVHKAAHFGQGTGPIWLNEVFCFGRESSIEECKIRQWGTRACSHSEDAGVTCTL
Nature of the assay: SPR Biacore T200, 25 C, antibody captured by anti-human Fc, His9-hMSR1 injected.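 Further: running buffer HBS-ET pH 7.4, rates from sensorgrams fitted to a 1:1 model including mass transport limitation, KD and half-life derived from the kinetic constants.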 Background: Surface plasmon resonance follows binding to a sensor surface in real time, without labels.

Assay [2] addresses T2, full length human MSR1 with a C-terminal Myc tag, on HEK293.Myc.hMSR1 cells (human, UniProt P21757 1-451).
T2 sequence (looked up): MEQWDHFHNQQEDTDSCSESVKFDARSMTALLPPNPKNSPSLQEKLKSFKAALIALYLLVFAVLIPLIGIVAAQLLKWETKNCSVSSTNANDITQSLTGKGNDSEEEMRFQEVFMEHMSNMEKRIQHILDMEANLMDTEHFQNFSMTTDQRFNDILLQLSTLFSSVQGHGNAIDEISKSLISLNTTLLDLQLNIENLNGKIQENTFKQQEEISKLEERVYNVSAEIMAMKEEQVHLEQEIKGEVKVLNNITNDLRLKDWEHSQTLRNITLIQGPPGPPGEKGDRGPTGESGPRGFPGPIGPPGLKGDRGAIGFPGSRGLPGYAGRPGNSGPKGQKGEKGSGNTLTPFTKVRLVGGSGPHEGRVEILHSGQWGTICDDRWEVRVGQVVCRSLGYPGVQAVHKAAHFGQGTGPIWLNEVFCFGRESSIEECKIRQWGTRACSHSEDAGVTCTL
The assay can be described thus: cell-based or functional assay.

Assay [3] has as its target T3, mouse MSR1 on RAW264.7 cells (mouse, UniProt P30204 1-458).
T3 construct: whole, on cells; also called MSR1 positive RAW264.7 cells
T3 sequence (looked up): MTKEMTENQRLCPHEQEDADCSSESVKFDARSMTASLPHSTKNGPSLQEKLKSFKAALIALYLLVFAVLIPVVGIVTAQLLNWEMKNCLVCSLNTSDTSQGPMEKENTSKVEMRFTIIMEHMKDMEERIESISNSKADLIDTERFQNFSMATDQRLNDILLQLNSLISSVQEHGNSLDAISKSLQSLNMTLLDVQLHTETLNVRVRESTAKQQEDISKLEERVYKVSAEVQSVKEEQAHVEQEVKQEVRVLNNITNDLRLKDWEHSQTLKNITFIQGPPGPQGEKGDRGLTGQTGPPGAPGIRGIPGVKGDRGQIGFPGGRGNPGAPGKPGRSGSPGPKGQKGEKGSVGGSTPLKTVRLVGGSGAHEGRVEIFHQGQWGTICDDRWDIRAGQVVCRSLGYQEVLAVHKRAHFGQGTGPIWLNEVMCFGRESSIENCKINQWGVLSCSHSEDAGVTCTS
The assay can be described thus: flow cytometry, RAW264.7 cells.
Experimental: To block binding to Fc receptors, RAW264.7 cells were incubated for 30 minutes at 4° C. with 500 pg/mL mouse IgG (Jackson ImmunoResearch, Cat #015-000-003) diluted in staining buffer, while B16F10.9 cells remained in staining buffer. […] The signal to noise (S/N) was determined by calculating the ratio of the anti-MSR1 antibodies or the control antibodies MFI to the unstained sample MFI (Table 11).

In assay [4] the target is T4, human MSR1 extracellular domain expressed with a N-terminal nonahistidine tag (His9-hMSR1); R&D Systems, Cat … (human, UniProt P21757 77-451).
T4 construct: extracellular domain; also called His-hMSR1; 9xHis-hMSR1; not shown: N-terminal nonahistidine tag
T4 sequence (looked up): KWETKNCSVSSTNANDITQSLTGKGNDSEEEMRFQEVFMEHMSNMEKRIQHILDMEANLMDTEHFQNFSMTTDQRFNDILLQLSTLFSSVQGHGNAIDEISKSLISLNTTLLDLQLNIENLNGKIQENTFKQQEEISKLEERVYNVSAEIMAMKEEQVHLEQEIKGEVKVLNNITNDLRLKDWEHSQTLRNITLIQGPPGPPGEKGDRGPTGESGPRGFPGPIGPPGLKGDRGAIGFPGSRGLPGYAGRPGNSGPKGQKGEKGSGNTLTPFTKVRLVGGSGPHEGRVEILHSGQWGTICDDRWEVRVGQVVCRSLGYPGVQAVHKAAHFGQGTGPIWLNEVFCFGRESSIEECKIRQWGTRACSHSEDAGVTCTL
The assay can be described thus: SPR Biacore, 25 C, antibody captured.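 Further: rates from 1:1 fit with mass transport limitation of real-time sensorgrams, HEPES-buffered saline with EDTA and Tween-20 at pH 7.4, KD and t½ derived from the kinetic rates.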

The target of assay [5] is T5, monkey MSR1 extracellular domain expressed with a N-terminal hexahistidine-myc-myc tag (HMM-mfMSR1) (monkey (Macaca fascicularis)).
T5 chain: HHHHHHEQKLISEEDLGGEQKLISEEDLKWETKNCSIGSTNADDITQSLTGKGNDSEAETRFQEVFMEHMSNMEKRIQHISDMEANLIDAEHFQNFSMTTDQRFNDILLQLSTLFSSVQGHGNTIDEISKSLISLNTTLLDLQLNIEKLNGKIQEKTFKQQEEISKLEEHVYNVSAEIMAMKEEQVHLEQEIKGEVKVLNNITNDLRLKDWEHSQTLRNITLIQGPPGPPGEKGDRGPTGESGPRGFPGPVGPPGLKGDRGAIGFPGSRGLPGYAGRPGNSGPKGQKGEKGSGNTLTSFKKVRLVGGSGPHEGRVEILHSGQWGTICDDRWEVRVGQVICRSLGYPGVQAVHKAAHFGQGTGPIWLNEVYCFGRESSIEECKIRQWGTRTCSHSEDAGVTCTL
Nature of the assay: SPR Biacore, 25 C, antibody captured.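 Further: rates from 1:1 fit with mass transport limitation of real-time sensorgrams, HEPES-buffered saline with EDTA and Tween-20 at pH 7.4, KD and t½ derived from the kinetic rates.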
Experimental: Binding affinities and kinetic constants of human anti-MSR1 antibodies for different MSR1 reagents were determined by real-time surface plasmon resonance (Biacore 4000). All binding studies were performed in 10 mM HEPES, 150 mM NaCl, 3 mM EDTA, and 0.05% v/v Surfactant Tween-20, pH 7.4 (HBS-ET) running buffer at 25° C. and 37° C.
The association rate (kₐ) and dissociation rate (kd) were determined by fitting the real-time binding sensorgrams to a 1:1 binding model with mass transport limitation using Scrubber 2.0c curve-fitting software. Binding dissociation equilibrium constant (KD) and dissociative half-life (t½) were calculated from the kinetic rates as:

Assay [6] has as its target T4, human MSR1 extracellular domain …. Nature of the assay: SPR Biacore, 37 C, antibody captured.
Assay [7] concerns the target T5, monkey MSR1 extracellular domain …. Nature of the assay: SPR Biacore, 37 C, antibody captured.

The source of these data is patent publication US20190367631A1 (Regeneron, published 2019).
Wherever % Inhibition of Dil-Acetylated LDL uptake is given: test concentration or dose not given here.
Wherever % Inhibition of Dil-Oxidized LDL uptake is given: test concentration or dose not given here.

B1: H1xH29282P2 (antibody, V domains shown)
VH: EVQLVESGGGLVQPGGSLRLSCAASGFTFSTYAMSWVRQAPGKGLEWVSTISGRSDITYFADSVKGRFTVSRDNSKTTLYLQMNSLRAEDTAVYYCATDDDLPLDYWGQGTLVTVSS
VL: not shown
notes: the prefix H1xH is not explained; captured by anti-human Fc
The Kd is the equilibrium constant for the complex coming apart. As usually defined, the koff is the rate constant with which the complex falls apart. One may read the kon as a measure of how fast the partners come together. In general, t½ refers to the time in which the quantity being followed falls by half. With B1, in assay [1], the Kd turned out to be 43.7 nM, the koff stood at 0.00362 s⁻¹, the kon was determined as 82800 M⁻¹ s⁻¹ and the t½ is 3.2 min.

B2: H1xH29273P2 (antibody, V domains shown)
VH: QVQLVESGGGVVQSGRSLRLSCAAAGFTFSNYGMHWVRQAPGKGLEWVALMSFDGSDKYYADSVKGRFTISRDNSKNTLYLQMNSLRAEDTALYYCAKGYDFWSGYWDYWGQGTLVTVSS
VL: not shown
notes: as for B1
Take B2: in assay [1], the Kd amounted to 93 nM, the koff amounted to 0.00763 s⁻¹, the kon stood at 82000 M⁻¹ s⁻¹ and the t½ is 1.5 min.

B3: H2aM21235N (antibody, mouse IgG2a, V domains shown)
VH: EVQLVESGGGLVQPGGSLRLSCAASGFTFSDHYMDWVRQAPGKGLEWVGRTRNKANSYTTEYAASVSGRFTISRDDSKNSLYLQMNSLKTEDTAVYYCTRAGIIGTLFDYWGQGTLVTVSS
VL: DIQMTQSPSSLSASVGDRVTITCRASQIIGRYLNWFQQKPGKVPKLLIYAASSLQRGVPSRFSGSGSGTDFTLTISSLQPEDFATYYCQQSYNTPPITFGQGTRLEIKR
Turning to B3, in assay [2], the “% Inhibition of Dil-Acetylated LDL uptake” value stood at 24%, the “% Inhibition of Dil-Oxidized LDL uptake” value came out at 64% and the “IC50 of Dil-Acetylated LDL uptake inhibition” value is over 100 nM.

B4: H2aM21227N (antibody, mouse IgG2a, V domains shown)
VH: QVQLVQSGAEVKKPGASVKVSCKVSGYTLTELSIHWVRQVPGKGLEWMGGFDPEEGETIFAQEFRDRVTLTEDTSPDTAYMELSSLKSEDAAVYYCTTPRYCNNGICYDYWGQGTLVTVSS
VL: DIQMTQSPSSLSASVGDRVTITCRASQSISNYLNWYQQKPGKAPKLLIYTASSLQSGVPSRFSGSGSGTDFTLTISSLQTEDFATYYCQQSYSNFPITFGQGTRLEIKR
On to B4, for which, in assay [2], the “% Inhibition of Dil-Acetylated LDL uptake” value came out at 62%, the “% Inhibition of Dil-Oxidized LDL uptake” value is 90%, the “IC50 of Dil-Acetylated LDL uptake inhibition” value was determined as 3.7 nM and the “IC50 of Dil-Oxidized LDL uptake inhibition” value amounted to 3.1 nM.

B5: H1M21231N (antibody, V domains shown)
VH: EVQLVESGGGLVQPGGSLRLSCAASGFTFSDHYMDWVRQAPGKGLEWVGRTRNKANSHTTEYTASVTGRFTISRDDSRNSLYLQMNSLKTEDTAVYYCVRAGIIGTLFDYWGQGTLVTVSS
VL: DIQMTQFPSSLSASVGDRVTITCRASQSISSFLNWFQQKPGKAPKFLIYAASSLQSGVPSRFSGSGSGTDFTLTISSLQPEDFATYYCQQSYSSPPITFGQGTRLEIKR
Regarding B5, in assay [2], the “% Inhibition of Dil-Acetylated LDL uptake” value was 50%, the “% Inhibition of Dil-Oxidized LDL uptake” value was 79%, the “IC50 of Dil-Acetylated LDL uptake inhibition” value is over 20 nM and the “IC50 of Dil-Oxidized LDL uptake inhibition” value is 3.7 nM.

B6: H1H21231N-N297Q (antibody, human IgG1, V domains shown)
VH: EVQLVESGGGLVQPGGSLRLSCAASGFTFSDHYMDWVRQAPGKGLEWVGRTRNKANSHTTEYTASVTGRFTISRDDSRNSLYLQMNSLKTEDTAVYYCVRAGIIGTLFDYWGQGTLVTVSS
VL: DIQMTQFPSSLSASVGDRVTITCRASQSISSFLNWFQQKPGKAPKFLIYAASSLQSGVPSRFSGSGSGTDFTLTISSLQPEDFATYYCQQSYSSPPITFGQGTRLEIKR
notes: human IgG1 Fc with N297Q point mutation
B6: in assay [3], the MFI is 3580 MFI and the “S/N (MFI over unstained MFI)” value was found to be 1.

B7: H2bM21234N (antibody, V domains shown)
VH: QVQLQESGPGLVKPSETLSLTCTVTGGSISRNYWSWIRQPPGKGLEWIGYIYYSGSIDYNPSLKSRVTISVDTSKNQFSLKLSSMTAADTAVYYCARDRWNWKYGMDVWGQGTTVIVSS
VL: EIVLTQSPGTLSLSPGERATLSCRASQTVRNNYLAWYHQKPGQAPRLLIYGASSRATGIPDRFSGSGSGTDFTLTISRLEPEDFTVYYCHQYGNSPWTFGQGTKMEIKR
As for B7, in assay [2], the “% Inhibition of Dil-Acetylated LDL uptake” value is 19%, the “% Inhibition of Dil-Oxidized LDL uptake” value turned out to be 61%, the “IC50 of Dil-Acetylated LDL uptake inhibition” value was found to be 1.8 nM and the “IC50 of Dil-Oxidized LDL uptake inhibition” value came to 4.5 nM.

B8: H1H27736P-N297Q (antibody, human IgG1, V domains shown)
VH: EVQLVESGGGLVQPGGSLRLSCAASGFTFSSYAMSWVRQAPGKGLEWVSSISGSGDSTFYTDSVKGRFTISRDISKNTLYLQMNSLRAEDTAVYYCAKDRLLWFGDLISPFHYWGQGTLVTVSS
VL: EIVLTQSPGTLSLSPGERATLSCRASQSVSNIYLAWYQQKPAQAPRLLIYGASSRATGIPDRFSVSGSGTDFTLTISRLEPEDFAVYYCQQYGSSPRTFGQGTKVEIKR
notes: human IgG1 Fc with N297Q
With B8, in assay [3], the MFI came to 3550 MFI and the “S/N (MFI over unstained MFI)” value turned out to be 1.

B9: H1H27747P-N297Q (antibody, human IgG1, V domains shown)
VH: QVQLVESGGAVVQPGRSLRLSCAASGFTFSYYGMHWVRQAPGKGLEWVAVISYDGSKKYYADSVKGRFTISRDNSKNTLYLQMNSLRAEDTAVYYCAKDLTVDFYYGMDVWGQGTTVTVSS
VL: DIQMTQSPSSVSASVGDRVTITCRASQGISSWLAWYQQKPGKAPKLLIYATSSLQSGAPSRFSGSGSGTDFTLTISSLQPEDFATYFCQQANSFPYTFGQGTKLEIKR
notes: human IgG1 Fc with N297Q
Take B9: in assay [3], the MFI amounted to 3630 MFI and the “S/N (MFI over unstained MFI)” value was determined as 1.

B10: H1H27761P-N297Q (antibody, V domains shown)
VH: EVQLVESGGDLVQPGGSLRLSCSASGFTFNIYAMSWVRQAPGKGLEWVSGISGSGGSTYYADSVKGRFTISRDNSKNTLYFQMNSLRVEDTAVYYCAKKISSSSYYYYAMDVWGQGTTVTVSS
VL: not shown
notes: Human IgG1 Fc with N297Q; tied by the numerical identifier; also called H1H27761P2-N297Q; H1H27761P2
On to B10, for which, in assay [4], the affinity, expressed as Kd, was 1.63 nM; the koff is 0.00051 s⁻¹; the kon was determined as 312000 M⁻¹ s⁻¹; the t½ turned out to be 23 min. In assay [5], the affinity, expressed as Kd, was 1.88 nM; the koff was 0.000597 s⁻¹; the kon worked out at 318000 M⁻¹ s⁻¹; the t½ was 19 min. In addition, in assay [6], the Kd was determined as 3.26 nM, the koff was 0.00222 s⁻¹, the kon amounted to 681000 M⁻¹ s⁻¹ and the t½ came out at 5 min. In assay [7], this molecule showed a Kd of 2.32 nM, a koff of 0.00214 s⁻¹, a kon of 920000 M⁻¹ s⁻¹ and a t½ of 5 min.
